{
  "source": "patent US8026218",
  "about": "(UNIVERSITY OF ARIZONA, dated 2011)",
  "key": {"rat µ opioid receptor [1]": {"molecular_target": "T1, rat µ opioid receptor (rat, UniProt P33535 1-398)", "T1 sequence (P33535 whole entry)": "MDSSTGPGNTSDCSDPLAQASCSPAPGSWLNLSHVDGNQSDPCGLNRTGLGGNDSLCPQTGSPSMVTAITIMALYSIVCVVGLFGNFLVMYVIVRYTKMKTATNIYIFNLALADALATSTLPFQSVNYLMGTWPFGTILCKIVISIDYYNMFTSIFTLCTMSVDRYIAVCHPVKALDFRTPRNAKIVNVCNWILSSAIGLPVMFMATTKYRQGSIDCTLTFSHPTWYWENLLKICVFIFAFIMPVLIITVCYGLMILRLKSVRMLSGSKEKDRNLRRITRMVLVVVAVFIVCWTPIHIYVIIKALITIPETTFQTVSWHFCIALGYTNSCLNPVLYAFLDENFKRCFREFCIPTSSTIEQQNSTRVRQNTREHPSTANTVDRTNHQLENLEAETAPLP", "assay": "cell-based or functional assay"}, "human δ opioid receptor [2]": {"molecular_target": "T2, human δ opioid receptor (human, UniProt P41143 1-372)", "T2 sequence (P41143 whole entry, stated change not applied)": "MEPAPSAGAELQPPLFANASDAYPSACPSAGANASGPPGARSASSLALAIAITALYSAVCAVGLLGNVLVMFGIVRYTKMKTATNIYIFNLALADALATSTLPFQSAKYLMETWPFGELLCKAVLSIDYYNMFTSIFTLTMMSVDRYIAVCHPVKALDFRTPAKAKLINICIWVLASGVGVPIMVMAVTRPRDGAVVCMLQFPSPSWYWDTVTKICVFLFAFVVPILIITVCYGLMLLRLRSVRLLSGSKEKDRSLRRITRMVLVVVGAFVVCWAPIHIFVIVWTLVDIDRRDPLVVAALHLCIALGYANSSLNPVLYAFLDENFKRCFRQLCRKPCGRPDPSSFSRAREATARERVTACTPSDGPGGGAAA", "assay": "cell-based or functional assay"}, "rat µ opioid receptor [3]": {"molecular_target": "T1, rat µ opioid receptor", "assay": "competition vs [3H]DAMGO, rMOR cell membranes"}, "rat NK1 receptor": {"molecular_target": "T3, rat NK1 receptor (rat, UniProt P14600 1-407)", "T3 construct": "whole, on cells; membrane preparations of the transfected cells were used; also called rNK1; rNK-1", "T3 sequence (P14600 whole entry)": "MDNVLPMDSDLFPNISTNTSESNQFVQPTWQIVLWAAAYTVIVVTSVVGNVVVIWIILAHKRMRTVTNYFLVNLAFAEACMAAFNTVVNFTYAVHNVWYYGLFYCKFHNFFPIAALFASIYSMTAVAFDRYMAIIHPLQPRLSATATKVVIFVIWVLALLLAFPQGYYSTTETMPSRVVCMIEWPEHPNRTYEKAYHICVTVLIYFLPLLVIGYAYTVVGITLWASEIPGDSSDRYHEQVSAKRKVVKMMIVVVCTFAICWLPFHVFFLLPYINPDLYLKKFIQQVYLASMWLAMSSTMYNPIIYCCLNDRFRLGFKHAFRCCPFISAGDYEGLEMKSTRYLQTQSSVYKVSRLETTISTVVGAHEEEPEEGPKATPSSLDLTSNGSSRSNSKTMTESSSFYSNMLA", "assay": "competition vs [3H]Substance P, rNK1 CHO cell membranes"}, "human δ opioid receptor [4]": {"molecular_target": "T2, human δ opioid receptor", "assay": "competition vs [3H]DPDPE, hDOR cell membranes"}, "human NK1 receptor": {"molecular_target": "T4, human NK1 receptor (human, UniProt P25103 1-407)", "T4 construct": "whole, on cells; membrane preparations of the transfected cells were used; also called hNK1; human neurokinin-1 receptor", "T4 sequence (P25103 whole entry)": "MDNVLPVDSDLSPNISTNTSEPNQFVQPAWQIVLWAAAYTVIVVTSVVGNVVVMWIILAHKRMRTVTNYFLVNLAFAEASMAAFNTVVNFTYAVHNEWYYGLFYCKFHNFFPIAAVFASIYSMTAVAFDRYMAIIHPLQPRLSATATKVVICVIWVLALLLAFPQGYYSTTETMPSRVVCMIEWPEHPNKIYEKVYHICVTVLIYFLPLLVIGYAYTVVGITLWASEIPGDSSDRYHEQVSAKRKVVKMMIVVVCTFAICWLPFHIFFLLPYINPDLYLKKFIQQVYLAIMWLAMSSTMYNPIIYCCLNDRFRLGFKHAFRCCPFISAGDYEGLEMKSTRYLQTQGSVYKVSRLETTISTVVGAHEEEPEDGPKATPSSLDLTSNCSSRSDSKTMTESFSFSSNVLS", "assay": "competition vs [3H]Substance P, hNK1 CHO cell membranes"}},
  "note": "Square brackets hold non-standard residues; d marks the D form. Ends that are not written are not given here. * marks the point of attachment. OBzl(3,5-(CF3)2) = FC(F)(F)c1cc(CO*)cc(C(F)(F)F)c1",
  "data": [
    {"binder": "Y[dA]GW-{OBzl(3,5-(CF3)2)} (also called NP44)", "note": "[Tyr-D-Ala-Gly-Trp-O-3′,5′(CF3)2-Bzl]", "values": [
      {"measurement": "GTP EC50", "setting": "rat µ opioid receptor [1]", "result": 22.9, "unit": "nM"},
      {"measurement": "GTP EC50", "setting": "human δ opioid receptor [2]", "result": 280, "unit": "nM"},
      {"measurement": "Ki", "setting": "rat µ opioid receptor [3]", "result": 48.5, "unit": "nM"},
      {"measurement": "Ki", "setting": "rat NK1 receptor", "result": 3.4, "unit": "nM"},
      {"measurement": "Ki", "setting": "human δ opioid receptor [4]", "result": 306, "unit": "nM"},
      {"measurement": "Ki", "setting": "human NK1 receptor", "result": 0.03, "unit": "nM"}
    ]}
  ]
}
